According to the supplement of paper PMC10065799, “High-throughput profiling of sequence recognition by tyrosine kinases and SH2 domains using bacterial peptide display” (eLife, 2023):

Columns and labels:
[1] = molecular target: c-Src SH2; test: SH2 binding enrichment of the phosphorylated peptide, bacterial display (enrichment ratio); higher = better substrate or ligand; peptides without Tyr show the background
[2] = molecular target: Grb2 SH2 (UniProt P62993); test: as above
[3] = molecular target: SHP2-C SH2; test: as above
[4] = molecular target: FGFR1 (UniProt P11362); test: phosphorylation enrichment, bacterial display (enrichment ratio); higher = better substrate or ligand; peptides without Tyr show the background
[5] = test system: AncSZ; test: as above
[6] = molecular target: Hck (UniProt P08631); test: as above
[7] = test system: c-Abl (mouse); test: as above
[8] = test system: c-Src; test: as above
[9] = test system: Fer (mouse); test: as above
[10] = molecular target: EPHB2 (UniProt P29323); test: as above
[11] = molecular target: MERTK (UniProt Q12866); test: as above
[12] = molecular target: Jak2 (UniProt O60674); test: as above
[13] = molecular target: EPHB1 (UniProt P54762); test: as above
[14] = molecular target: FGFR3 (UniProt P22607); test: as above
[15] = molecular target: Fes (UniProt P07332); test: as above
[16] = molecular target: Fyn (UniProt P06241); test: as above
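Throughout, for SH2 binding enrichment of the phosphorylated peptide, bacterial display: peptide library displayed on the E. coli surface as eCPX fusions, selected cells deep-sequenced, score is each peptide's frequency after selection divided by its frequency in the input.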
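Throughout, for phosphorylation enrichment, bacterial display: 11-residue human phosphosite peptides and single-mutation variants displayed on the E. coli surface, counted by deep sequencing, each peptide's frequency after selection divided by its frequency in the unselected input library; frequency after pTyr selection over input frequency; kinase dosed for 20-30% of maximal phosphorylation in three min.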

FGFR3, sequence (P22607 whole entry, looked up): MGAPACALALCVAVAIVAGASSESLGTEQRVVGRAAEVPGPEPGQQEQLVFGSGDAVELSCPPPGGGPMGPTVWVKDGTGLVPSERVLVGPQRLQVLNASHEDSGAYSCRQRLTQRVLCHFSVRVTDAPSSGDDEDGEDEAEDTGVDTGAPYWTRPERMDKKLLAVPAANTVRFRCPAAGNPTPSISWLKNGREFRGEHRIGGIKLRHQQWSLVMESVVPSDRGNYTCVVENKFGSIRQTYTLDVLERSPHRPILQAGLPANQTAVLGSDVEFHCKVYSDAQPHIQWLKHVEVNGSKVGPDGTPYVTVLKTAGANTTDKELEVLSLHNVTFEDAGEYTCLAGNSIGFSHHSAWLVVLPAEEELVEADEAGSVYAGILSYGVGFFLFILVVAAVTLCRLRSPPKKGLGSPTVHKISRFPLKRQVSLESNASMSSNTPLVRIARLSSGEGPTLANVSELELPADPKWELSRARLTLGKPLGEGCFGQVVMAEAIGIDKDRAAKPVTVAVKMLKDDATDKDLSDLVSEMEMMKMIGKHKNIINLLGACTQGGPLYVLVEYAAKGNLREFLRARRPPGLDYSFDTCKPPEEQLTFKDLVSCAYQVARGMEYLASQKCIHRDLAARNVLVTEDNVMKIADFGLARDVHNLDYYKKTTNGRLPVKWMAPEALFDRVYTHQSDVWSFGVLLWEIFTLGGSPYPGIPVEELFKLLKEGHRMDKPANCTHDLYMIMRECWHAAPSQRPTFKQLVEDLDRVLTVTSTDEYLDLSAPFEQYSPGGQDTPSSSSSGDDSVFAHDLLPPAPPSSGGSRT
Fyn, sequence (P06241 whole entry, looked up, the tested form may be a part): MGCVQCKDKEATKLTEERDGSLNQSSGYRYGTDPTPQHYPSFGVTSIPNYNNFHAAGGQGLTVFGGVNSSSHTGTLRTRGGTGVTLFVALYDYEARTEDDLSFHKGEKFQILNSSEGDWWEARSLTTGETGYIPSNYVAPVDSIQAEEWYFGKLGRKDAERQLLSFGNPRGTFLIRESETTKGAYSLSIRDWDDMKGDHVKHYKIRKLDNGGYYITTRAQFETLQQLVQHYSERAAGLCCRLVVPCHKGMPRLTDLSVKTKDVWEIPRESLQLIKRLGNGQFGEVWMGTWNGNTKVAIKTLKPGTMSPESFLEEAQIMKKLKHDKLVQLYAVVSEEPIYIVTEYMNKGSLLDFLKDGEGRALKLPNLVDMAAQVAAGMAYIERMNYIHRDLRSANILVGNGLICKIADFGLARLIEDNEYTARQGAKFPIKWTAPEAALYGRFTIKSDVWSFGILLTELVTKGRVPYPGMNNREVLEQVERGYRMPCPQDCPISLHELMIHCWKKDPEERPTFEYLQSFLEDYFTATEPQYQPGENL
MERTK, sequence (Q12866 whole entry, looked up): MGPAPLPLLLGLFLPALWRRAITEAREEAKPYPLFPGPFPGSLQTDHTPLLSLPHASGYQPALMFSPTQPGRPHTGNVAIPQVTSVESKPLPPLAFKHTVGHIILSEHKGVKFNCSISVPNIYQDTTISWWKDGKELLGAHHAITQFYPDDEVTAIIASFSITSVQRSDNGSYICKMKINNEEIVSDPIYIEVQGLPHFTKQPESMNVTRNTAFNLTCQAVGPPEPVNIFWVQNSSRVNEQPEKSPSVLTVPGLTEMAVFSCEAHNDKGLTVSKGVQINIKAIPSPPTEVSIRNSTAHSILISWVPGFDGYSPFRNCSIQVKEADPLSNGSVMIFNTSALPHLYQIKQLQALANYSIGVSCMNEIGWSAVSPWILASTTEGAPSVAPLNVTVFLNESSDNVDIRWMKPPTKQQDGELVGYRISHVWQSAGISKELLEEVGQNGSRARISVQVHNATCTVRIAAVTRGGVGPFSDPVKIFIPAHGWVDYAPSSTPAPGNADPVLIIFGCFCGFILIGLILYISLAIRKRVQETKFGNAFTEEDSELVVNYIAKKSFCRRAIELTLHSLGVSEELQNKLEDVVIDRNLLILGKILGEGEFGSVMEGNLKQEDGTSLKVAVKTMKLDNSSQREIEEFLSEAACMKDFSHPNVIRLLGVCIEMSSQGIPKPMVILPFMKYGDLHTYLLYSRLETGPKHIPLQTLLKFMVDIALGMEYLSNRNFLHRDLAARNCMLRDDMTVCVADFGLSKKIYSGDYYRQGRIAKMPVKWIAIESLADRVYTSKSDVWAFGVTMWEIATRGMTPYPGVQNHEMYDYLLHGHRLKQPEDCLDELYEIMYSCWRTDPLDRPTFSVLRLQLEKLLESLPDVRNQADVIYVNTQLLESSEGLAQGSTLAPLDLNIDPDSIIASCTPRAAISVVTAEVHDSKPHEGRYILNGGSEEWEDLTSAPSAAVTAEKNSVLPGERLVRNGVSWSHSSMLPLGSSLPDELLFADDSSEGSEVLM
Hck, sequence (P08631 whole entry, looked up): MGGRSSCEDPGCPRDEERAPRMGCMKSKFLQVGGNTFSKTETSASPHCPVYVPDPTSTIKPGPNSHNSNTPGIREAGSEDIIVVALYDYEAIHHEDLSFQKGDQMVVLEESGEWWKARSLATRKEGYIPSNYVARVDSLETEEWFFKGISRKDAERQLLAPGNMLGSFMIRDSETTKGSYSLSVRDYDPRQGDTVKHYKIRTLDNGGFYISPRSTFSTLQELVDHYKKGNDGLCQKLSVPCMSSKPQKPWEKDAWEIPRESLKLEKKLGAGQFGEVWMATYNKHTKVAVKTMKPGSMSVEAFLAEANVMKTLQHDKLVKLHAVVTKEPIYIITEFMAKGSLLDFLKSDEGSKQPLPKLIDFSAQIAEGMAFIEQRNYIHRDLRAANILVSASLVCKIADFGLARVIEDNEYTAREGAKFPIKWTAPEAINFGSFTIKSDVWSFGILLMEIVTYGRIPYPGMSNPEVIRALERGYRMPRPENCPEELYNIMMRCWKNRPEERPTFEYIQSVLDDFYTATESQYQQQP
FGFR1, sequence (P11362 whole entry, looked up): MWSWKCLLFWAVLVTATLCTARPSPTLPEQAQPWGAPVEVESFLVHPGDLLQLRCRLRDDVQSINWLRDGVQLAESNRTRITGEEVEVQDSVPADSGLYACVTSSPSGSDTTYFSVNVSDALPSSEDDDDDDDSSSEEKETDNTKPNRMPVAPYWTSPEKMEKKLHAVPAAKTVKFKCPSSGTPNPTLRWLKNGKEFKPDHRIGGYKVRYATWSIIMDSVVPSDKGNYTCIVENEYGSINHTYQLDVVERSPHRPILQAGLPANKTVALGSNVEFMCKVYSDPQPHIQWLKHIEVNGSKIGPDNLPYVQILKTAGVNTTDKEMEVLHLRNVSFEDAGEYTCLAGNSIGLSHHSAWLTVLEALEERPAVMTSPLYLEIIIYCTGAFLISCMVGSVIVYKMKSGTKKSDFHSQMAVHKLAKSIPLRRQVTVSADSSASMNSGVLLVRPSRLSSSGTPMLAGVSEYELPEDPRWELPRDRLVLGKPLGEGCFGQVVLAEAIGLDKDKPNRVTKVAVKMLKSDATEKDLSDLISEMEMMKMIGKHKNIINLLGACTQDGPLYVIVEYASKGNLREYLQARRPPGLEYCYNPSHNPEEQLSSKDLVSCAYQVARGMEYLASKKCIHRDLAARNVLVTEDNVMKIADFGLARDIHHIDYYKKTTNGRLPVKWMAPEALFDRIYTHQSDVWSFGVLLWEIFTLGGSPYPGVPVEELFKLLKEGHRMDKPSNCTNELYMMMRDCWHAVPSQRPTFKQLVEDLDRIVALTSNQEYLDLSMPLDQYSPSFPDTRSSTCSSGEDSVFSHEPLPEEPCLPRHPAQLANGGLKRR
EPHB1, sequence (P54762 whole entry, looked up): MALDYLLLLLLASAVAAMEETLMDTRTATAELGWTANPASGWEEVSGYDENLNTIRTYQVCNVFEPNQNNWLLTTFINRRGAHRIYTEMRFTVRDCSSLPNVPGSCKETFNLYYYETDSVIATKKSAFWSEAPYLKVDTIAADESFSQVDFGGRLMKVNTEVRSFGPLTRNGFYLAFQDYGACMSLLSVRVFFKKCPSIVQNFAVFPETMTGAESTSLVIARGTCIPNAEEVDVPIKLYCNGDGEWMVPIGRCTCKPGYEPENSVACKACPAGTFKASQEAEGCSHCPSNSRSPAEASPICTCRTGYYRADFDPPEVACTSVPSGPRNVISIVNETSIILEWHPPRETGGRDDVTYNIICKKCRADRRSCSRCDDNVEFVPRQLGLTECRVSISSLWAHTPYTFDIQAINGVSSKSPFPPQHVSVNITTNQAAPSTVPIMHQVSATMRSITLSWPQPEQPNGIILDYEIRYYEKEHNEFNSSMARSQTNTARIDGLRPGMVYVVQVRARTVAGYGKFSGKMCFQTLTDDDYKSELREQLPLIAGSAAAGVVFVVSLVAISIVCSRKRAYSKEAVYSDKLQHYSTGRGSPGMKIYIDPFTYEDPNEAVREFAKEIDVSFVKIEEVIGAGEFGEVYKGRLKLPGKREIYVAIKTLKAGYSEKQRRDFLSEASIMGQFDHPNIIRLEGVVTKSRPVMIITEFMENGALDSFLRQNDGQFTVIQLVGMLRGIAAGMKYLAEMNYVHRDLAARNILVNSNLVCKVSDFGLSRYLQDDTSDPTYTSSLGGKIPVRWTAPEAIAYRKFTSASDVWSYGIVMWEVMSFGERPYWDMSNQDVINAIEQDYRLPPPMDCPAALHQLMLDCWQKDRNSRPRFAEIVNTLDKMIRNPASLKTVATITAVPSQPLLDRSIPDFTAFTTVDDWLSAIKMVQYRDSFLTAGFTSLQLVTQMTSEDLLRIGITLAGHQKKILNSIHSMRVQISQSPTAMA

Row | Sequence | SH2 binding enrichment [1] | SH2 binding enrichment [2] | SH2 binding enrichment [3] | phosphorylation enrichment [4] | phosphorylation enrichment [5] | phosphorylation enrichment [6] | phosphorylation enrichment [7] | phosphorylation enrichment [8] | phosphorylation enrichment [9] | phosphorylation enrichment [10] | phosphorylation enrichment [11] | phosphorylation enrichment [12] | phosphorylation enrichment [13] | phosphorylation enrichment [14] | phosphorylation enrichment [15] | phosphorylation enrichment [16]
1 | SIKDKYLTALY [KCNH2_Y611_V612L] | 0.565 | 0.968 | 0.634 | 0.417 | 0.727 | 0.651 | 0.487 | 0.623 | 0.44 | 0.452 | 0.439 | 0.624 | 0.456 | 0.546 | 0.707 | 0.56
2 | SIKNKYVTALY [KCNH2_Y611_D609N] | 0.381 | 0.909 | 0.932 | 0.409 | 0.559 | 0.47 | 0.454 | 0.461 | 0.518 | 0.498 | 0.528 | 0.605 | 0.349 | 0.598 | 0.592 | 0.359
3 | SIRFNYLLDVL [FGFR4_Y237_YF] | 1.1 | 1.37 | 1.3 | 0.481 | 0.94 | 0.485 | 0.706 | 0.413 | 0.502 | 0.518 | 0.387 | 1 | 0.539 | 0.747 | 1.14 | 0.432
4 | SLLTDCSPQLQ [OTC_Y345_Y345C] | 0.483 | 0.975 | 0.765 | 0.518 | 0.999 | 0.554 | 0.768 | 0.475 | 0.522 | 0.548 | 0.441 | 0.905 | 0.567 | 0.707 | 1.06 | 0.454
5 | SLLTDYSPQLQ [OTC_Y345] | 0.517 | 0.708 | 0.918 | 0.447 | 0.776 | 0.48 | 0.483 | 0.372 | 0.453 | 0.508 | 0.381 | 0.788 | 0.459 | 0.546 | 0.796 | 0.45
6 | SNMPTYSGHFS [GRIN2A_Y1224_T1229S] | 0.491 | 0.898 | 0.643 | 0.433 | 0.594 | 1.48 | 0.684 | 2.61 | 1.04 | 0.784 | 1.15 | 0.662 | 0.585 | 0.45 | 0.581 | 1.7
7 | SQETYYRVSNM [ABCD1_Y181_Q178E] | 0.473 | 0.657 | 0.79 | 6.81 | 1.37 | 3.97 | 1.33 | 2.96 | 0.549 | 2.95 | 3.7 | 3.85 | 4.42 | 4.94 | 0.805 | 2
8 | SQQTYYRVSNM [ABCD1_Y181] | 0.636 | 0.853 | 0.789 | 7.77 | 0.703 | 3.23 | 0.795 | 3 | 0.401 | 1.12 | 3.23 | 6.19 | 1.93 | 5.82 | 0.678 | 1.47
9 | SQSPHYFRSGR [GPATCH8_Y1038] | 0.394 | 0.731 | 0.411 | 0.383 | 0.719 | 0.389 | 0.544 | 0.538 | 0.427 | 0.394 | 0.502 | 0.687 | 0.56 | 0.425 | 0.819 | 0.476
10 | SREALYNETDP [CACNA1A_Y794_M797T] | 0.764 | 0.89 | 0.641 | 0.559 | 1.16 | 0.739 | 0.996 | 0.722 | 0.663 | 0.642 | 0.625 | 1.14 | 0.67 | 0.815 | 1.37 | 0.624
11 | SRGSSYSSIPK [FLNC_Y2625] | 1.02 | 0.769 | 0.563 | 0.479 | 0.474 | 0.381 | 0.428 | 0.444 | 0.37 | 0.322 | 0.489 | 0.498 | 0.304 | 0.362 | 0.518 | 0.358
12 | SSFDIYHLSRE [KIR3DL2_Y253_YF] | 0.608 | 0.776 | 0.694 | 1.44 | 1.12 | 9.84 | 0.807 | 7.22 | 0.788 | 0.762 | 2.6 | 0.817 | 0.975 | 1.29 | 1.02 | 12.1
13 | SSKILYHIIKG [CDH17_Y489] | 6.59 | 0.958 | 3.78 | 1.22 | 0.565 | 0.655 | 0.438 | 0.453 | 0.383 | 0.529 | 1.12 | 0.63 | 0.395 | 0.923 | 0.798 | 0.45
14 | SSLMKYQQNVS [EGFEM1P_Y160_P157L] | 0.398 | 0.783 | 0.723 | 0.321 | 0.491 | 0.426 | 0.374 | 0.363 | 0.324 | 0.46 | 0.343 | 0.422 | 0.416 | 0.536 | 0.571 | 0.386
15 | SSREEYFIGGG [GYPC_Y126_K124E] | 0.486 | 0.836 | 0.895 | 0.562 | 1.05 | 0.474 | 0.71 | 0.655 | 0.486 | 0.44 | 0.471 | 0.894 | 0.457 | 1.94 | 0.909 | 0.574
16 | SSYDTYHLSRE [KIR3DL2_Y253_I252T] | 0.632 | 0.685 | 0.529 | 0.6 | 0.709 | 4.59 | 0.657 | 3.69 | 0.457 | 0.841 | 0.583 | 0.527 | 0.451 | 0.569 | 0.713 | 6.54
17 | SSYPDYLAAVD [GLB1_Y154_D151Y] | 0.498 | 0.815 | 0.473 | 0.647 | 1.36 | 0.515 | 0.653 | 0.451 | 0.495 | 0.554 | 0.415 | 0.994 | 0.518 | 0.746 | 1.05 | 0.495
18 | SSYSRYIMMPN [LEF1_Y114_G113R] | 1.32 | 0.665 | 1.56 | 1.79 | 0.654 | 0.488 | 0.405 | 0.518 | 0.552 | 1.84 | 3.9 | 2.35 | 1.9 | 1.3 | 0.637 | 0.542
19 | STASGYSDVTD [DTX2_Y425] | 3.68 | 0.851 | 1.11 | 0.497 | 0.721 | 0.449 | 0.61 | 0.358 | 0.398 | 0.464 | 0.355 | 0.661 | 0.448 | 0.487 | 0.84 | 0.447
20 | STLEVYRCHPP [IL21R_Y317_S318R] | 0.42 | 0.715 | 0.455 | 0.55 | 1.11 | 0.552 | 0.78 | 0.497 | 0.49 | 0.675 | 0.364 | 1.03 | 0.758 | 0.901 | 1.25 | 0.542
21 | SVQVEYMKTIL [GLYATL2_Y127_D126E] | 0.72 | 0.712 | 0.777 | 0.437 | 0.643 | 0.469 | 0.484 | 0.376 | 0.425 | 0.476 | 0.429 | 0.612 | 0.41 | 0.578 | 0.893 | 0.413

Further lines, with some results ahead:

Row | SH2 binding enrichment [1] | SH2 binding enrichment [2] | SH2 binding enrichment [3] | Sequence | phosphorylation enrichment [4] | phosphorylation enrichment [5] | phosphorylation enrichment [6] | phosphorylation enrichment [7] | phosphorylation enrichment [8] | phosphorylation enrichment [9] | phosphorylation enrichment [10] | phosphorylation enrichment [11] | phosphorylation enrichment [12] | phosphorylation enrichment [13] | phosphorylation enrichment [14] | phosphorylation enrichment [15] | phosphorylation enrichment [16]
22 | 4.66 | 0.893 | 14.2 | SKAYAYVHFDS [PABPC5_Y149_G146A] | 0.445 | 0.967 | 0.398 | 0.789 | 0.365 | 0.477 | 0.461 | 0.389 | 1.05 | 0.549 | 0.803 | 1.19 | 0.394
23 | 0.819 | 1.24 | 0.962 | SLFPGYNFRFA [P2RX7_Y291_YF] | 0.433 | 0.844 | 0.476 | 0.508 | 0.502 | 0.511 | 0.46 | 0.475 | 0.673 | 0.614 | 0.736 | 0.953 | 0.472
24 | 0.666 | 0.91 | 0.672 | SLYPGYNFRYA [P2RX7_Y291] | 0.44 | 0.63 | 0.529 | 0.477 | 0.378 | 0.498 | 0.604 | 0.399 | 0.495 | 0.423 | 0.57 | 0.685 | 0.413
25 | 2.09 | 0.856 | 1.04 | SQKRKYIEIDS [SDAD1_Y580] | 0.463 | 0.818 | 0.475 | 0.613 | 0.507 | 0.394 | 0.414 | 0.571 | 0.701 | 0.463 | 0.376 | 0.614 | 0.451
26 | 0.507 | 0.851 | 0.66 | SSPVPYLSPET [TJP1_Y931] | 0.482 | 0.789 | 0.445 | 0.646 | 0.422 | 0.453 | 0.502 | 0.409 | 0.719 | 0.442 | 0.627 | 0.835 | 0.541
27 | 0.557 | 0.836 | 0.664 | STEAIYRRYSK [SH3PXD2B_Y42] | 0.41 | 0.511 | 0.425 | 0.709 | 0.52 | 0.341 | 0.441 | 0.466 | 0.534 | 0.302 | 0.425 | 0.418 | 0.456
28 | 0.434 | 0.606 | 0.495 | STEAIYWRFSK [SH3PXD2B_Y42_R43W_YF] | 0.913 | 1.2 | 2.51 | 7.78 | 2.98 | 0.564 | 0.74 | 1.32 | 1.29 | 1.05 | 1.13 | 1.51 | 3.69
29 | 0.376 | 0.585 | 0.467 | STEVIYQPRRK [STK11_Y36] | 0.424 | 0.603 | 0.683 | 1 | 0.704 | 0.473 | 0.527 | 0.643 | 0.612 | 0.437 | 0.539 | 0.523 | 0.52
30 | 1.88 | 0.812 | 0.845 | STTIHYNYMCN [TP53_Y234_C229S] | 0.629 | 1 | 0.543 | 0.71 | 0.458 | 0.592 | 0.677 | 0.53 | 0.792 | 0.603 | 0.809 | 1.14 | 0.517
31 | 1.13 | 1.29 | 1.07 | SVCPDYDLCSV [SQSTM1_Y148] | 0.661 | 1.65 | 0.678 | 0.98 | 0.87 | 1.89 | 0.959 | 0.524 | 1.3 | 0.788 | 0.901 | 1.3 | 0.689
32 | 0.444 | 0.742 | 0.389 | SVTCTHSPALN [TP53_Y126_Y126H] | 0.404 | 0.862 | 0.529 | 0.818 | 0.459 | 0.542 | 0.548 | 0.4 | 0.759 | 0.498 | 0.612 | 1.01 | 0.52
33 | 0.468 | 0.844 | 0.44 | SVTCTYSPALS [TP53_Y126_N131S] | 0.396 | 2.15 | 0.553 | 1.42 | 0.719 | 0.508 | 0.645 | 0.42 | 1.42 | 0.673 | 0.697 | 1.63 | 0.424
